Test results published in patent US20060188526A1, “Method for enhancing the immune response to Staphylococcus aureus infection” (priority 2005, published 2006).

Columns and labels:
[1] = test system: C3b-coated S. aureus phagocytosis by human polymorphonuclear leukocytes (PMN); test: Phagocytosis assay, C3b-coated S. aureus (purified complement components) incubated with factor H, factor I or both; assay type: cell-based; details: compared with untreated C3b-coated S. aureus, factor H 40 μg/ml, factor I 4 μg/ml
Method: Bacterial strains and growth. Staphylococcus aureus strain Reynolds, capsule polysaccharide serotype 5, was used in all experiments. This strain has a pattern of C3-fragment deposition similar to other capsule polysaccharide serotype 5 and 8 strains—the serotypes that account for the majority of human S. aureus infections. Mid-logarithmic phase bacteria were grown in Columbia 2% NaCl broth at 37° C. with agitation for 2 hours to an optical densitometry of 0.7 to 1.3 at 600 nm. In midlogarithmic phase growth minimal capsule is expressed by strain Reynolds.
Opsonization with purified complement components. Washed bacteria (1×10^9 CFU in GVBS^++ buffer) were incubated with 0.35% IVIg for 30 min. at room temperature in order to sensitize the bacteria for activating the classical complement pathway. Antibody-coated bacteria were then incubated in 60% DGVBS^++ buffer with the purified human complement proteins C1, C4, C2, and C3 to generate the classical complement pathway C3-convertase and bind C3b to the S. aureus surface. […]
Phagocytosis assay. […] Bacteria and PMN were visualized by fluorescence microscopy using broad wavelength excitation and emission filters that allow visualization at 100× magnification. Microscope slides were blinded to the reader, and 100 neutrophils per slide were counted to determine the percent of PMN phagocytosing bacteria and total number of S. aureus ingested.

[2] = molecular target: T1, C3b bound to S. aureus surface (Homo sapiens, UniProt P01024); test: C3-fragments bound to C3b-coated S. aureus with factor H, factor I or both (ELISA, Western blot); assay type: biochemical
T1 construct: purchased Advance Research Technologies, San Diego, Calif
T1 sequence (P01024 749-1663): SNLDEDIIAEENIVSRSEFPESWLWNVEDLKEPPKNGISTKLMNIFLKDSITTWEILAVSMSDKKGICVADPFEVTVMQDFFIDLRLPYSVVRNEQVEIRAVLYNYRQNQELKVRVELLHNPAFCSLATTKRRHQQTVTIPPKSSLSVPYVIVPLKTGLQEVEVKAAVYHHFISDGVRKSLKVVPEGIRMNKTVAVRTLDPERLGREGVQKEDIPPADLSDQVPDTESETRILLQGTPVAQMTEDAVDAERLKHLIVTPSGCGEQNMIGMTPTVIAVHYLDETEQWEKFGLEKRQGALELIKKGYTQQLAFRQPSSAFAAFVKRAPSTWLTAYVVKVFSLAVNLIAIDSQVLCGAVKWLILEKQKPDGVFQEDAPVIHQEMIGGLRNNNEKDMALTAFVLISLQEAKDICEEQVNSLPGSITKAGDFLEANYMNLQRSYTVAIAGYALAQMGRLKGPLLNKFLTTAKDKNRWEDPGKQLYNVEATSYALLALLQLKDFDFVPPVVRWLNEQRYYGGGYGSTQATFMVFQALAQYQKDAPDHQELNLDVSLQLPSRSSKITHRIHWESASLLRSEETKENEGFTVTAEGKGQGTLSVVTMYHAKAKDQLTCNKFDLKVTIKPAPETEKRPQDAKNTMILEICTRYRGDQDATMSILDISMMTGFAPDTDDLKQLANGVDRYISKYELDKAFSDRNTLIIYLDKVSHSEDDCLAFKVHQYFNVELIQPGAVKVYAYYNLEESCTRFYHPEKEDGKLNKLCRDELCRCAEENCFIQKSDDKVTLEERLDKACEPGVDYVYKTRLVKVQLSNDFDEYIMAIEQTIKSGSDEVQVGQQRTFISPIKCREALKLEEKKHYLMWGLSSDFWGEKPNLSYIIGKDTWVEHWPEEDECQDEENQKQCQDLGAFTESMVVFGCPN
T1 sequence (P01024 23-667): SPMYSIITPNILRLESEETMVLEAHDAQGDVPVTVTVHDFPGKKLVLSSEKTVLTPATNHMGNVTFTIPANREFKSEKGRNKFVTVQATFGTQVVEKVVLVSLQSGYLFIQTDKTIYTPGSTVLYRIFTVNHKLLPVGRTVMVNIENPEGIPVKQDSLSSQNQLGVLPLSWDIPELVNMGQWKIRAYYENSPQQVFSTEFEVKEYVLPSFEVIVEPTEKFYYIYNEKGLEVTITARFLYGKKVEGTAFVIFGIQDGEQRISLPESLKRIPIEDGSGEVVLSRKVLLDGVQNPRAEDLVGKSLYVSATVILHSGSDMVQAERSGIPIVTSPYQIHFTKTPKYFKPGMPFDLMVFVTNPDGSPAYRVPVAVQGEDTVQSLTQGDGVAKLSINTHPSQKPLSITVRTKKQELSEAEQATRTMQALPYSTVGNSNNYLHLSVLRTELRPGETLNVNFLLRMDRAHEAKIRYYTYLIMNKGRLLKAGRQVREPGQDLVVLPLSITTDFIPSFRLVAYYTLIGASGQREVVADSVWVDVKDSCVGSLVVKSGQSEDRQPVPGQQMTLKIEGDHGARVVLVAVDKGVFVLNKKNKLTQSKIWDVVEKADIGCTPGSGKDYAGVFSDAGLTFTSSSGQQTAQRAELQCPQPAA
Method: Opsonization with purified complement components. Washed bacteria (1×10^9 CFU in GVBS^++ buffer) were incubated with 0.35% IVIg for 30 min. at room temperature in order to sensitize the bacteria for activating the classical complement pathway. Antibody-coated bacteria were then incubated in 60% DGVBS^++ buffer with the purified human complement proteins C1, C4, C2, and C3 to generate the classical complement pathway C3-convertase and bind C3b to the S. aureus surface. Bacteria were incubated with C1 (2 μg/ml) at 30° C. for 15 min., and then with C4 (10 μg/ml) at 37° C. for 45 min. Bacteria were then incubated with C2 (0.5 μg/ml) and C3 (10 μg/ml) together at 30° C. for 30 min. C3b-coated staphylococci were then incubated with factor H (40 μg/ml), factor 1 (4 μg/ml), or both factors for 30 min. at 37° C. The bacteria pellet was then sedimented and the supernatants recovered to measure C3-fragments released from the bacteria. The bacteria were then washed and treated with 0.05 ml of 25 mM methylamine (Sigma-Aldrich) for 60 min. at 37° C. to recover C3-fragments bound by ester bonds to the S. aureus surface. The stripped bacteria were sedimented and the supernatants containing previously surface bound C3-fragments were recovered for testing by ELISA and Western blot. […]
(§1) Analysis of surface-bound and released C3-fragments. ELISA was used to quantitate total C3-fragment amount and iC3b amount as follows. […] Plates were washed 3 three times with PBS/Tween buffer and developed with TMB Plus (Accurate Chemical), stopped with 2.5 N H2SO4, and read at 450 nm.
Values for C3-fragments bound and iC3b bound to S. aureus opsonized in serum were calculated subtracting the values obtained with heat inactivated serum from the values obtained with NHS. Methylamine supernatants of surface bound C3-fragments were analyzed by Western blot analysis performed with polyclonal goat anti-human C3 antibody (Advanced Research Technologies) and horseradish peroxidase-labeled rabbit anti-goat antibody (Sigma-Aldrich). Bound antibody was detected by enhanced chemiluminescence.

[3] = molecular target: T1, C3b bound to S. aureus surface; test: C3-fragments released from C3b-coated S. aureus with factor H, factor I or both (C3 ELISA, Western blot); assay type: biochemical
Method: Opsonization with purified complement components. Washed bacteria (1×10^9 CFU in GVBS^++ buffer) were incubated with 0.35% IVIg for 30 min. at room temperature in order to sensitize the bacteria for activating the classical complement pathway. Antibody-coated bacteria were then incubated in 60% DGVBS^++ buffer with the purified human complement proteins C1, C4, C2, and C3 to generate the classical complement pathway C3-convertase and bind C3b to the S. aureus surface. Bacteria were incubated with C1 (2 μg/ml) at 30° C. for 15 min., and then with C4 (10 μg/ml) at 37° C. for 45 min. Bacteria were then incubated with C2 (0.5 μg/ml) and C3 (10 μg/ml) together at 30° C. for 30 min. C3b-coated staphylococci were then incubated with factor H (40 μg/ml), factor 1 (4 μg/ml), or both factors for 30 min. at 37° C. […]
as §1
Values for C3-fragments bound and iC3b bound to S. aureus opsonized in serum were calculated subtracting the values obtained with heat inactivated serum from the values obtained with NHS. […] Bound antibody was detected by enhanced chemiluminescence.

B1: factor I: purified human complement regulatory protein factor I, serum enzyme that cleaves C3b to iC3b (protein, UniProt P05156 19-583, looked up)
Complement factor I: KVTYTSQEDLVEKKCLAKKYTHLSCDKVFCQPWQRCIEGTCVCKLPYQCPKNGTAVCATNRRSFPTYCQQKSLECLHPGTKFLNNGTCTAEGKFSVSLKHGNTDSEGIVEVKLVDQDKTMFICKSSWSMREANVACLDLGFQQGADTQRRFKLSDLSINSTECLHVHCRGLETSLAECTFTKRRTMGYQDFADVVCYTQKADSPMDDFFQCVNGKYISQMKACDGINDCGDQSDELCCKACQGKGFHCKSGVCIPSQYQCNGEVDCITGEDEVGCAGFASVTQEETEILTADMDAERRRIKSLLPKLSCGVKNRMHIRRKRIVGGKRAQLGDLPWQVAIKDASGITCGGIYIGGCWILTAAHCLRASKTHRYQIWTTVVDWIHPDLKRIVIEYVDRIIFHENYNAGTYQNDIALIEMKKDGNKKDCELPRSIPACVPWSPYLFQPNDTCIVSGWGREKDNERVFSLQWGEVKLISNCSKFYGNRFYEKEMECAGTYDGSIDACKGDSGGPLVCMDANNVTYVWGVVSWGENCGKPEFPGVYTKVANYFDWISYHVGRPFISQYNV
decrease of percent of neutrophils phagocytosing C3b-coated S. aureus ([1]; FIG. 3A): 29% | decrease of number of C3b-coated S. aureus phagocytosed by 100 neutrophils ([1]; FIG. 3B): 40% | decrease of amount of total C3-fragments bound to C3b-coated S. aureus ([2]; C3 ELISA, compared to control bacteria (no factor H or I exposure), FIG. 4B): 58% | types of C3-fragments bound to the S. aureus surface, Western blot ([2]; compared with untreated C3b-coated S. aureus, FIG. 4C): less C3b and more iC3b | increase of amount of iC3b bound to S. aureus ([2]; iC3b ELISA, compared with untreated C3b-coated bacteria, FIG. 4A): 75% | amounts of C3-fragments shed from the S. aureus surface ([3]; C3 ELISA, compared with incubation in buffer alone, FIG. 5A): increased significantly | form of C3-fragments shed, Western blot with polyclonal anti-C3 antibody ([3]; FIG. 5B): likely iC3b or possibly C3c
